T1: Ring1A (mouse, UniProt O35730 1-406)
T1 construct: mature; Untagged protein: 35S-labelled in vitro translation product in the GST pull-down; baculovirus-expressed in Sf9 cells in the co-purifications; also called Ring1/Ring1A
T1 sequence (looked up): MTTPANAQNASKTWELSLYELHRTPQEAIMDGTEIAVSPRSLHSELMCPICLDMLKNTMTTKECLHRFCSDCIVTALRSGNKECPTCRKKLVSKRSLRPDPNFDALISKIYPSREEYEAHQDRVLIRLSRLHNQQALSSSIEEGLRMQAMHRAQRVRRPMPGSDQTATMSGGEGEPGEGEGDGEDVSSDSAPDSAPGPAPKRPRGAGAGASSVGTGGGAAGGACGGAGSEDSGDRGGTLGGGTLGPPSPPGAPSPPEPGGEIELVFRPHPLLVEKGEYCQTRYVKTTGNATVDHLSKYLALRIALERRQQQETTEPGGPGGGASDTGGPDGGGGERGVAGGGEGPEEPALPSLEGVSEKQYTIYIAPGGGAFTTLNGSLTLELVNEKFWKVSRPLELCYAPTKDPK

T2: GST-Ring1A (mouse, UniProt O35730 1-406)
T2 construct: mature; Full-length cDNA cloned into pGEX-KG; also called GST fusion of Ring1A; not shown: glutathione S-transferase (GST) encoded by the pGEX-KG vector
T2 sequence (looked up): T1 sequence (looked up)

T3: Bmi-1, P25916
T3 chain: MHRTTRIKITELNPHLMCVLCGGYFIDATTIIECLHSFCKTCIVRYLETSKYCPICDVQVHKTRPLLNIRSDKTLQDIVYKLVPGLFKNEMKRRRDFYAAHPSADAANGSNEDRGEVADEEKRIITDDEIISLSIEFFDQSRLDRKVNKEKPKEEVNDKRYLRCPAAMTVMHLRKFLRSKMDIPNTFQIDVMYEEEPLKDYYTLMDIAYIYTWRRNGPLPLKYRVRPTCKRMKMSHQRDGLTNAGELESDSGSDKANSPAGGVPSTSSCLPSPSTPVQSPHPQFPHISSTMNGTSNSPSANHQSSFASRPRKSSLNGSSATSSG

T4: FLAG®-Ring1B (mouse, UniProt Q9CQJ4 1-336)
T4 construct: also called F-Ring1B
T4 sequence: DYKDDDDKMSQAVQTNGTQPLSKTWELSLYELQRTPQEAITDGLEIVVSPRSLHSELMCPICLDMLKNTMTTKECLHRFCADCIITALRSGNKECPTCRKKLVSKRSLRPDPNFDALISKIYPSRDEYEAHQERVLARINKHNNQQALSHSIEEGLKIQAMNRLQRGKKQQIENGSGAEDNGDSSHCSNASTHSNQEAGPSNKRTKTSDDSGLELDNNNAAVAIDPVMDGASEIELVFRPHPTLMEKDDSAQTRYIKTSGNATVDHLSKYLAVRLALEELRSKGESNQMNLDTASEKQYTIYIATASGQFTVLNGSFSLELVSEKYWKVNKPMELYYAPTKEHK

B1: GST-Ring1B (other, mouse, UniProt Q9CQJ4 2-336, looked up)
chain: SQAVQTNGTQPLSKTWELSLYELQRTPQEAITDGLEIVVSPRSLHSELMCPICLDMLKNTMTTKECLHRFCADCIITALRSGNKECPTCRKKLVSKRSLRPDPNFDALISKIYPSRDEYEAHQERVLARINKHNNQQALSHSIEEGLKIQAMNRLQRGKKQQIENGSGAEDNGDSSHCSNASTHSNQEAGPSNKRTKTSDDSGLELDNNNAAVAIDPVMDGASEIELVFRPHPTLMEKDDSAQTRYIKTSGNATVDHLSKYLAVRLALEELRSKGESNQMNLDTASEKQYTIYIATASGQFTVLNGSFSLELVSEKYWKVNKPMELYYAPTKEHK
notes: mature; Full-length cDNA cloned into pGEX-KG; also called GST fusion of Ring1B; not shown: glutathione S-transferase (GST) encoded by the pGEX-KG vector
B2: Ring1B (enzyme, mouse, UniProt Q9CQJ4 2-336, looked up)
chain: B1 chain
notes: mature; Untagged protein: 35S-labelled in vitro translation product (pCITE, full-length cDNA) in the GST pull-down; baculovirus-expressed in Sf9 cells in the co-purifications; also called Ring2; Ring2/Ring1B
B3: FLAG®-Ring1B (protein)
chain: T4 sequence
B4: Bmi-1 (other, mouse, UniProt P25916 1-324, looked up)
chain: T3 chain
notes: mature; Untagged protein: 35S-labelled in vitro translation product in the GST pull-down; baculovirus-expressed in Sf9 cells in the two-component complex with FLAG-Ring1B

In one data set the target is T1, Ring1A. The experiment in a line: GST pull-down with 35S-labelled in vitro translated protein (FIG. 5A). The protocol:
(§1) Full-length cDNAs for Ring1B, Ring1A, Bmi-1, Pc3 and Ph2 were inserted into pCITE vector for in vitro translation using the rabbit reticulocyte lysate kit according to the manufacturer's instructions (PROMEGA, Madison, Wis.). Full-length cDNAs for Ring1B, Ring1A, Bmi-1, Pc3 and Ph2 were also cloned into pGEX-KG vector for the production of GST-fusion proteins. About 3 μg of GST or GST fusion proteins were bound to 10 μL of glutathione-immobilized agarose beads (Sigma) and incubated with in vitro-translated products in 500 μL buffer A (50 mM Tris-HCl [pH 7.9], 0.5 mM EDTA, 1 mM dithiothreitol, 0.2 mM phenylmethylsulfonyl fluoride, 10% glycerol) containing 150 mM KCl and 0.05% NP-40. After incubation at 4° C. for 2 hours, the beads were washed three times with buffer A containing 300 mM KCl and 0.05% NP-40 and then washed once in buffer A containing 50 mM KCl before being subjected to SDS-PAGE and autoradiogram.
(§2) To address the effect of other subunits on Ring1B enzymatic activity, an attempt was made to reconstitute Ring1B-containing subcomplexes. Toward this end, the precise spatial relationship among components of the complex were first defined using GST full-down assays. Individual components were expressed as GST fusion proteins and equal amounts of the fusion proteins, as well as GST alone (FIG. 5A, last panel), were immobilized onto beads and incubated with ³⁵S-labeled proteins. […]

The target in another data set is T2, GST-Ring1A. The description is as above. The protocol: as §1, §2
For the next data set, the target named is T3, Bmi-1, P25916.
The data set “Ring1B” addresses B2. Description: purification of two-component complexes from infected insect cells (FIG. 13D).
The target of the next data set is T4, FLAG®-Ring1B. The experiment in a line: co-expression in Sf9 cells, anti-FLAG purification, silver stain (FIG. 7A). The protocol: To purify the recombinant PRC1 complex and sub-complexes, different baculoviruses were used to co-infect SF9 cells. After two days of infection, cells were collected and resuspended in F lysis buffer [20 mM Tris (pH 7.9), 500 mM NaCl, 4 mM MgCl₂, 0.4 mM EDTA, 2 mM DTT, 20% glycerol, 0.1% NP40] with proteinase inhibitors. Then cells were homogenized with pestle A three times (10 strokes each) in a period of 30 minutes. The supernatant was recovered by centrifuging at 11,000 rpm for 10 minutes. The supernatant was adjusted to 300 mM NaCl by adding Dilution buffer [20 mM Tris (pH 7.9), 10% glycerol], then incubated with the M2 α-FLAG® agarose (Sigma, St. Louis, Mo.) equilibrated with F lysis buffer for 4 hours at 4° C. After washing with F washing buffer [20 mM Tris (pH 7.9), 150 mM NaCl, 2 mM MgCl₂, 0.2 mM EDTA, 1 mM DTT, 15% glycerol, 0.01% NP40] until no protein came out, bound proteins were eluted with 0.2 mg/ml FLAG® peptide ([…]; SEQ ID NO:5) in F washing buffer for 20 minutes each time at room temperature. The eluted complexes were further purified through a gel-filtration SEPHADEX 200 or SUPEROSE 6 column. […]

In the case of B1, in the data set with Ring1A, the binding result is reported as “no binding”.

B2: the binding result in the data set with GST-Ring1A is on record as “no binding”.

As to B3, the “E3 ligase activity (ubiquitylation of nucleosomal substrates)” value in the data set with Bmi-1, P25916 is listed as “stimulated its E3 ligase activity”.

As to B4, the binding result with Ring1B and in the data set with FLAG®-Ring1B was “binds” in each case.

The record behind these values is patent US20080248458A1 (UNIVERSITY OF NORTH CAROLINA AT CHAPEL HILL, published 2008).
